Source: IntAct's records for PubMed 17928862

B1: Charged multivesicular body protein 1b (Homo sapiens), Q7LBR1 (parent)
chain: MSNMEKHLFNLKFAAKELSRSAKKCDKEEKAEKAKIKKAIQKGNMEVARIHAENAIRQKNQAVNFLRMSARVDAVAARVQTAVTMGKVTKSMAGVVKSMDATLKTMNLEKISALMDKFEHQFETLDVQTQQMEDTMSSTTTLTTPQNQVDMLLQEMADEAGLDLNMELPQGQTGSVGTSVASAEQDELSQRLARLRDQV
partner: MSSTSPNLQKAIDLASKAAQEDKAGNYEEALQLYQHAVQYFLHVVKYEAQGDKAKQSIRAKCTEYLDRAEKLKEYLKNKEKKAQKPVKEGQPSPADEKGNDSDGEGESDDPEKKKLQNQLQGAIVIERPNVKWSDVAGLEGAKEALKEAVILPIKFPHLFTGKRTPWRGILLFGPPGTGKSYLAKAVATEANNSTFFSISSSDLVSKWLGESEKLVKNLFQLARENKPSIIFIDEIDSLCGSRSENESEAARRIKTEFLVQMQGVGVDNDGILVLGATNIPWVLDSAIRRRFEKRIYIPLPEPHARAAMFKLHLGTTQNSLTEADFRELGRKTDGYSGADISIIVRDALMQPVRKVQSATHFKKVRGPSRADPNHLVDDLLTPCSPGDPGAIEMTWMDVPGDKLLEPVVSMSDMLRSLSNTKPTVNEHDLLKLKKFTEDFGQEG
B2: Vacuolar protein sorting-associated protein 4A (Homo sapiens), Q9UN37 (parent)
chain: MTTSTLQKAIDLVTKATEEDKAKNYEEALRLYQHAVEYFLHAIKYEAHSDKAKESIRAKCVQYLDRAEKLKDYLRSKEKHGKKPVKENQSEGKGSDSDSEGDNPEKKKLQEQLMGAVVMEKPNIRWNDVAGLEGAKEALKEAVILPIKFPHLFTGKRTPWRGILLFGPPGTGKSYLAKAVATEANNSTFFSVSSSDLMSKWLGESEKLVKNLFELARQHKPSIIFIDEVDSLCGSRNENESEAARRIKTEFLVQMQGVGNNNDGTLVLGATNIPWVLDSAIRRRFEKRIYIPLPEEAARAQMFRLHLGSTPHNLTDANIHELARKTEGYSGADISIIVRDSLMQPVRKVQSATHFKKVCGPSRTNPSMMIDDLLTPCSPGDPGAMEMTWMDVPGDKLLEPVVCMSDMLRSLATTRPTVNADDLLKVKKFSEDFGQES
partner: B1 chain

Variants of: B1
Conditions: with vps4b_human VPS4B

Row | Variant | effect of a mutation on the interaction
1 | MSNMEKHLFNLKFAAKELSRSAKKCDKEEKAEKAKIKKAIQKGNMEVARIHAENAIRQKNQAVNFLRMSARVDAVAARVQTAVTMGKVTKSMAGVVKSMDATLKTMNLEKISALMDKFEHQFETLDVQTQQMEDTMSSTTTLTTPQNQVDMLLQEMADEAGLDLNMELPQGQTGSVGTSVASAEQDELSQRAARLRDQV | decreasing interaction strength
2 | MSNMEKHLFNLKFAAKELSRSAKKCDKEEKAEKAKIKKAIQKGNMEVARIHAENAIRQKNQAVNFLRMSARVDAVAARVQTAVTMGKVTKSMAGVVKSMDATLKTMNLEKISALMDKFEHQFETLDVQTQQMEDTMSSTTTLTTPQNQVDMLLQEMADEAGLDLNMELPQGQTGSVGTSVASAEQDEASQRLARLRDQV | decreasing interaction strength

Variants of: B2
Conditions: with chm1b_human CHMP1B

Row | Variant | effect of a mutation on the interaction
3 | MTTSTLQKAIDLVTKATEEDKAKNYEEALRLYQHAVEYFLHAIKYEAHSDKAKESIRAKCVQYADRAEKLKDYLRSKEKHGKKPVKENQSEGKGSDSDSEGDNPEKKKLQEQLMGAVVMEKPNIRWNDVAGLEGAKEALKEAVILPIKFPHLFTGKRTPWRGILLFGPPGTGKSYLAKAVATEANNSTFFSVSSSDLMSKWLGESEKLVKNLFELARQHKPSIIFIDEVDSLCGSRNENESEAARRIKTEFLVQMQGVGNNNDGTLVLGATNIPWVLDSAIRRRFEKRIYIPLPEEAARAQMFRLHLGSTPHNLTDANIHELARKTEGYSGADISIIVRDSLMQPVRKVQSATHFKKVCGPSRTNPSMMIDDLLTPCSPGDPGAMEMTWMDVPGDKLLEPVVCMSDMLRSLATTRPTVNADDLLKVKKFSEDFGQES [L64A] | decreasing interaction strength
4 | MTTSTLQKAIDLVTKATEEDKAKNYEEALRLYQHAVEYFLHAIKYEAHSDKAKESIRAKCVQYDDRAEKLKDYLRSKEKHGKKPVKENQSEGKGSDSDSEGDNPEKKKLQEQLMGAVVMEKPNIRWNDVAGLEGAKEALKEAVILPIKFPHLFTGKRTPWRGILLFGPPGTGKSYLAKAVATEANNSTFFSVSSSDLMSKWLGESEKLVKNLFELARQHKPSIIFIDEVDSLCGSRNENESEAARRIKTEFLVQMQGVGNNNDGTLVLGATNIPWVLDSAIRRRFEKRIYIPLPEEAARAQMFRLHLGSTPHNLTDANIHELARKTEGYSGADISIIVRDSLMQPVRKVQSATHFKKVCGPSRTNPSMMIDDLLTPCSPGDPGAMEMTWMDVPGDKLLEPVVCMSDMLRSLATTRPTVNADDLLKVKKFSEDFGQES [L64D] | disrupting interaction strength
